Test results: US20200316217A1

Experiments:
Test in all cases: cell-based or functional assay
Human PTHR1 WT (human) = Human PTHR1 WT (human) (UniProt Q03431)
PTHR16E (human) = PTHR16E (human) (UniProt Q03431)
PTHR1GFP (human) = PTHR1GFP (human) (UniProt Q03431)
PTHR1YFPΔECD (human) = target: PTHR1YFPΔECD (human)
rat PTHR1 (rat) = rat PTHR1 (rat) (UniProt P25961)
human PTHR2 (human) = human PTHR2 (human) (UniProt P49190)
human PTHR2 (human), sequence (P49190 25-550): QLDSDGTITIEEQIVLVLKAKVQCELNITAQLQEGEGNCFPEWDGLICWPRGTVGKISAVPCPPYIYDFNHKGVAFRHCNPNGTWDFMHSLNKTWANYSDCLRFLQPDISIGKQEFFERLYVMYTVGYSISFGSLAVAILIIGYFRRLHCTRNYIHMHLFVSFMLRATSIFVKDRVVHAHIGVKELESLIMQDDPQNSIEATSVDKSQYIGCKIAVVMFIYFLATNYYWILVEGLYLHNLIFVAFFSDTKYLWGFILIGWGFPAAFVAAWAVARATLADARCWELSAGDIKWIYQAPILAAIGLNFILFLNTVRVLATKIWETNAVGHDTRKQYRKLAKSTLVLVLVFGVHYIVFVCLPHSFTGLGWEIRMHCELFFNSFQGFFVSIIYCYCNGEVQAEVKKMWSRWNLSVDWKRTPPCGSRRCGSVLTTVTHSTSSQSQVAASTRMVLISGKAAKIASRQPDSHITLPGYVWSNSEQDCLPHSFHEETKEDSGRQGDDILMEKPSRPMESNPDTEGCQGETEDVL

rat PTHR1 (rat), sequence (P25961 27-591): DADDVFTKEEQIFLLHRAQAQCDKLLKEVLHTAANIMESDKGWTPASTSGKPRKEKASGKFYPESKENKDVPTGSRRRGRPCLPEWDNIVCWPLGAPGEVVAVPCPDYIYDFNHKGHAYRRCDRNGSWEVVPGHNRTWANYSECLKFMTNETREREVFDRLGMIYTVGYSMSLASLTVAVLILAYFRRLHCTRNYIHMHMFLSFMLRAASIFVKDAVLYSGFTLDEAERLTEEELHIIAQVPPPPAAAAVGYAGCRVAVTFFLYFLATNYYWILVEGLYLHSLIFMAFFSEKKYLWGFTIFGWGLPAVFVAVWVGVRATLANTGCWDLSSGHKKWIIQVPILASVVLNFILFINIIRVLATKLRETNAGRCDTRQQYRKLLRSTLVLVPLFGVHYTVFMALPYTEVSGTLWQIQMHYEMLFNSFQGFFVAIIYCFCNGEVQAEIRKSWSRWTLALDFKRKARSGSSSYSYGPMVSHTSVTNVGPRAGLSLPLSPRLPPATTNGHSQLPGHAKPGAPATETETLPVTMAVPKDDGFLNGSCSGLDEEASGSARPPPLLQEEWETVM

Question: Which Stimulation of receptor (cAMP), EC50 (Human PTHR1 WT (human)) does the source give for PTH(1-9) (peptide) here?
Answer: > 10000 nM

Question: And the cAMP induction EC50 (Human PTHR1 WT (human))?
Answer: > 10000 nM

Question: What about the Stimulation of receptor (cAMP), EC50 (PTHR16E (human)) of the same substance?
Answer: > 10000 nM

Question: What about the cAMP induction EC50 (PTHR16E (human)) of the same substance?
Answer: > 10000 nM

Question: And the cAMP induction EC50 (PTHR1GFP (human))?
Answer: > 10000 nM

Question: And the Stimulation of receptor (cAMP), EC50 (PTHR1YFPΔECD (human))?
Answer: > 10000 nM

Question: And the cAMP induction EC50 (PTHR1YFPΔECD (human))?
Answer: > 10000 nM

Question: Which results are given for PTH(1-10) (peptide)?
Answer: Stimulation of receptor (cAMP), EC50 (Human PTHR1 WT (human)): 3120 nM; cAMP induction EC50 (Human PTHR1 WT (human)): 3120 nM; cAMP induction Max (normalized) (Human PTHR1 WT (human)): 1.03 normalized; Stimulation of receptor (cAMP), EC50 (PTHR16E (human)): 5080 nM; cAMP induction EC50 (PTHR16E (human)): 5080 nM; cAMP induction Max (normalized) (PTHR16E (human)): 1.09 normalized; cAMP induction EC50 (PTHR1GFP (human)): 2550 nM; cAMP induction Max (normalized) (PTHR1GFP (human)): 1.16 normalized; Stimulation of receptor (cAMP), EC50 (PTHR1YFPΔECD (human)): 3840 nM; cAMP induction EC50 (PTHR1YFPΔECD (human)): 3840 nM; cAMP induction Max (normalized) (PTHR1YFPΔECD (human)): 1.12 normalized; cAMP induction EC50 (rat PTHR1 (rat)): 2470 nM; cAMP induction Max (normalized) (rat PTHR1 (rat)): 1.09 normalized

Question: What does the source list for VHHGFP-PTH(1-10)?
Answer: cAMP induction EC50 (PTHR1GFP (human)): > 100 nM; Stimulation of receptor (cAMP), EC50 (PTHR1YFPΔECD (human)): 0.46 nM; cAMP induction EC50 (PTHR1YFPΔECD (human)): 0.46 nM; cAMP induction Max (normalized) (PTHR1YFPΔECD (human)): 1.06 normalized; potency, fold against PTH(1-10) (PTHR1YFPΔECD (human)): 7800 fold

Question: Which Stimulation of receptor (cAMP), EC50 (Human PTHR1 WT (human)) does the source give for PTH(1-11) (peptide) here?
Answer: 516 nM

Question: What about the cAMP induction EC50 (Human PTHR1 WT (human)) of the same substance?
Answer: 516 nM

Question: What about the cAMP induction Max (normalized) (Human PTHR1 WT (human)) of the same substance?
Answer: 1.01 normalized

Question: What about the Stimulation of receptor (cAMP), EC50 (PTHR16E (human)) of the same substance?
Answer: 94 nM

Question: What about the cAMP induction EC50 (PTHR16E (human)) of the same substance?
Answer: 94 nM

Question: What about the cAMP induction Max (normalized) (PTHR16E (human)) of the same substance?
Answer: 1.09 normalized

Question: And the cAMP induction EC50 (PTHR1GFP (human))?
Answer: 79 nM

Question: What about the cAMP induction Max (normalized) (PTHR1GFP (human)) of the same substance?
Answer: 1.1 normalized

Question: What about the half maximal stimulation (cAMP-sensitive luciferase) (PTHR1GFP (human)) of the same substance?
Answer: 200 nM

Question: And the Stimulation of receptor (cAMP), EC50 (PTHR1YFPΔECD (human))?
Answer: 246 nM

Question: And the cAMP induction EC50 (PTHR1YFPΔECD (human))?
Answer: 246 nM

Question: What about the cAMP induction Max (normalized) (PTHR1YFPΔECD (human)) of the same substance?
Answer: 1.02 normalized

Question: And the cAMP induction EC50 (human PTHR2 (human))?
Answer: > 100000 nM

Question: What about the cAMP induction Max (normalized) (human PTHR2 (human)) of the same substance?
Answer: 0.36 normalized

Question: And the cAMP induction, percent at 100 uM (human PTHR2 (human))?
Answer: 20 % at 100 µM

Question: What about the cAMP induction EC50 (rat PTHR1 (rat)) of the same substance?
Answer: 120 nM

Question: And the cAMP induction Max (normalized) (rat PTHR1 (rat))?
Answer: 1.02 normalized

Question: Which results are given for PTH(1-14) (peptide)?
Answer: Stimulation of receptor (cAMP), EC50 (Human PTHR1 WT (human)): 4.3 nM; cAMP induction EC50 (Human PTHR1 WT (human)): 4.3 nM; cAMP induction Max (normalized) (Human PTHR1 WT (human)): 1.01 normalized; Stimulation of receptor (cAMP), EC50 (PTHR16E (human)): 3.4 nM; cAMP induction EC50 (PTHR16E (human)): 3.4 nM; cAMP induction Max (normalized) (PTHR16E (human)): 1.06 normalized; cAMP induction EC50 (PTHR1GFP (human)): 2.3 nM; cAMP induction Max (normalized) (PTHR1GFP (human)): 1.09 normalized; Stimulation of receptor (cAMP), EC50 (PTHR1YFPΔECD (human)): 1.1 nM; cAMP induction EC50 (PTHR1YFPΔECD (human)): 1.1 nM; cAMP induction Max (normalized) (PTHR1YFPΔECD (human)): 0.96 normalized; cAMP induction EC50 (human PTHR2 (human)): 924 nM; cAMP induction Max (normalized) (human PTHR2 (human)): 1.14 normalized

Question: VHHGFP-PTH(1-11) was tested. Which Stimulation of receptor (cAMP), EC50 (Human PTHR1 WT (human)) did it give?
Answer: > 100 nM

Question: And the activation of PTHR1 (Human PTHR1 WT (human))?
Answer: > 100 nM

Question: And the cAMP induction EC50 (Human PTHR1 WT (human))?
Answer: > 100 nM

Question: What about the Stimulation of receptor (cAMP), EC50 (PTHR16E (human)) of the same substance?
Answer: > 100 nM

Question: What about the cAMP induction EC50 (PTHR16E (human)) of the same substance?
Answer: > 100 nM

Question: What about the cAMP induction EC50 (PTHR1GFP (human)) of the same substance?
Answer: 8 nM

Question: And the cAMP induction Max (normalized) (PTHR1GFP (human))?
Answer: 1.1 normalized

Question: What about the Stimulation of receptor (cAMP), EC50 (PTHR1YFPΔECD (human)) of the same substance?
Answer: 0.14 nM

Question: What about the activity, fold enhancement against PTH(1-11) (PTHR1YFPΔECD (human)) of the same substance?
Answer: > 20000 fold

Question: What about the cAMP induction EC50 (PTHR1YFPΔECD (human)) of the same substance?
Answer: 0.14 nM

Question: And the cAMP induction Max (normalized) (PTHR1YFPΔECD (human))?
Answer: 1.19 normalized

Question: And the cAMP induction EC50 (rat PTHR1 (rat))?
Answer: > 100 nM

Question: How did the Stimulation of receptor (cAMP), EC50 (Human PTHR1 WT (human)) turn out when VHHGFP-PTH(1-14) was run?
Answer: > 100 nM

Question: And the cAMP induction EC50 (Human PTHR1 WT (human))?
Answer: > 100 nM

Question: What about the Stimulation of receptor (cAMP), EC50 (PTHR16E (human)) of the same substance?
Answer: > 100 nM

Question: What about the cAMP induction EC50 (PTHR16E (human)) of the same substance?
Answer: > 100 nM

Question: And the cAMP induction EC50 (PTHR1GFP (human))?
Answer: 1.8 nM

Question: What about the cAMP induction Max (normalized) (PTHR1GFP (human)) of the same substance?
Answer: 1.21 normalized

Question: What about the Stimulation of receptor (cAMP), EC50 (PTHR1YFPΔECD (human)) of the same substance?
Answer: 0.58 nM

Question: And the cAMP induction EC50 (PTHR1YFPΔECD (human))?
Answer: 0.58 nM

Question: What about the cAMP induction Max (normalized) (PTHR1YFPΔECD (human)) of the same substance?
Answer: 1.16 normalized

Question: How did the cAMP induction EC50 (PTHR1GFP (human)) turn out when VHHGFP-PTH(1-9) was run?
Answer: > 100 nM

Question: What about the Stimulation of receptor (cAMP), percent activation (% activation at 100 nM) (PTHR1YFPΔECD (human)) of the same substance?
Answer: 40

Question: And the cAMP induction Max (normalized) (PTHR1YFPΔECD (human))?
Answer: 0.38 normalized

Question: And the cAMP induction, percent activation (% activation at 100 nM) (PTHR1YFPΔECD (human))?
Answer: 40
